Experimental data taken from the supplement of paper PMC9170038.

System: MS2 coat protein
Assay: apparent KD of MS2 coat protein; higher = weaker reporter binding
Conditions: Eterna round: R107
In short: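 Apparent KD is reported per design as the median of normalised binding-curve fits across its clusters. The RNA switches were made by on-chip transcription from Illumina sequencing clusters. SNAP-549-labelled MS2 coat protein was then added in twofold steps (0.7 or 1.5 nM to 3 µM; 0.8–1.5 h to 10–20 min per step) in 100 mM Tris-HCl pH 7.5, 80 mM KCl, 4 mM MgCl2, without or with constant ligand.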

[1] = input ligand: theophylline 20 uM
[2] = input ligand: tryptophan 2.4 mM
[3] = input ligand: theophylline 2 mM

Row | Sequence | apparent KD of MS2 coat protein (input ligand: arginine 13.2 mM) | apparent KD of MS2 coat protein [1] | apparent KD of MS2 coat protein [2] | apparent KD of MS2 coat protein [3] | apparent KD of MS2 coat protein (input ligand: none)
1 | AGUACUCGAACGGAUACCAGCCGGACAUGAGGAUCACCCAUGUCCUACCAUGUUUCGGUUGGCCCUUGGCAGCCGUUCGUGUACA [Omei Theo B SS A v1] | 207 nM | 428 nM | 736 nM |  | 
2 | GGAUUCAACUCGGCCGCCACUGGUGAUCCUAAUGUACAUGAGGAUCACCCAUGUACAUGAGAAUACAGGACCGGGAGAUAAGCAA [Tryptophan B V2 (+4A)] | 20.1 nM | 26.5 nM |  | 24 nM | 
3 | UAACAUGAGGAUCACCCAUGUUUAGAUGAACGAGGACCGGUACGGCCGCCACUCGAUAAGUGGAAAGAGCGAGGGAUUGUAUGCU [Same State Trp A GF4] | 12.2 nM | 16.2 nM | 11.9 nM | 10.3 nM | 12.4 nM
4 | GGGCUUGUGGUGCGGCGUGUUCCGCUCCGUCGAGGACCGGUACGGCCGCCACUCGACAUGAGGAUCACCCAUGUGCGAGCGCGCG [#1 Exclusion - Tryptophan A Attempt #7 (HarryS)] | 11.4 nM | 16.1 nM | 25.1 nM | 15.4 nM | 17.3 nM
5 | GAACAUGAGGAUCACCCAUGUAAAACAGAUACCAGUGAUAUAAUACACCCUUGGCAGCUGAAGCUGAAUAAUAAUUCCCUCAAGC [Same State Theophylline A GF1] | 17 nM | 20 nM | 15 nM |  | 
6 | GGGCCCGGGCCCGCGCGGGCCCGGGCCCAACGAGGACCGGUACGGCCGCCACUCGAACGAGUGGGUACAUGAGGAUCACCCAUGU [Baa] | 38.6 nM | 55.9 nM | 33.4 nM | 48.6 nM | 30.7 nM
7 | UGUCGUAGACAUGAGGAUCACCCAUGUCCACGAGGACCGGUACGGCCGCCACUCGGGAUAUAAACCGUUACGGGUGGGUGGUGUU [Maarlainin] | 16 nM | 26 nM |  | 21.2 nM | 
8 | AAACAUGAGGAUCACCCAUGUAUACUUAGACGAGGACCGGUACGGCCGCCACUCGAACUUCAAGAUUUGGCGGAAAAUGUAUGUA [JR_ExcTryptoA_Sub022] | 9.71 nM | 13 nM |  | 12.1 nM | 
9 | CAUUGUUAGACGGCCGCCACUUUUGGUUCGGAACGAUCGAUUGGACAUGAGGAUCACCCAUGUGGAAGGACCGGGUCUAAUCAAA [theeternabot_sameState_MS2_Trp_B_20] | 83 nM | 328 nM | 134 nM | 265 nM | 165 nM
10 | ACAUGAGGAUCACCCAUGUAAGGUCUUGAUACCAGACGAGAAGUAGUCCCUUGGCAGCAAAUACGUGAGGGUCACACAUGUGUAA [edsmullin] | 21.6 nM | 37.7 nM | 25.9 nM |  | 
11 | CGCCGCGCGGGAAGGAGCGCGAUUACAUAACAUGAGGAUCACCCAUGUAAGAAAUUAUUCAUGCAGGUAGGUCGCCCGCGCGGCG [Same State Arginine B GF 5] | 58.8 nM | 28.4 nM | 22.8 nM | 22.8 nM | 22.3 nM
12 | CGGUUUGUGAUGGAUACCAGCAGAGAGAAUGUUUAUCCUGACAUGAGGAUCACCCAUGUGUGCCCUUGGCAGCUGUUGUGGGCUG [8.Y] | 42.4 nM | 102 nM | 55.8 nM |  | 
13 | GGACUAACCAGAAGGAGCGGCGCGCAGAAACUGCAAAAUCCUCCGCACGAGGAUCACCCGUGUCAGGUAGGUCGCUGGUUAGUCG [ArgBX 28] | 18 nM | 16.2 nM | 17.3 nM | 20.8 nM | 17.7 nM
14 | AGAGAGGCGCAUGAUACCAGCUUGGCCUAACAUGAGGAUCACCCAUGUCAAUGGGCCUUAAGCCCUUGGCAGCAUAGGGUGUCCU [Xeestixexe] | 72.7 nM | 186 nM | 85.9 nM | 25.9 nM | 72.1 nM
15 | UCGUAGCUAGGAAGGAGCGCAUACUUCACAUGAGGAUCACCCAUGUCGAGACGUGAGUCAGUGCAGGUAGGUCGCCUAGCUAUGA [Same State - Arginine B (Freestyle 26)] | 18.2 nM | 22.3 nM | 19.3 nM | 21.5 nM | 17.6 nM
16 | GGCCUAGCGAGCGCUCGCUAGGCCGCGGAUACCAGCGAGGUCCAUCGCCCUUGGCAGCCGAACAUGAGGAUCACCCAUGUCGGUA [#1 Same State - Theophylline A Attempt #15 (HarryS)] | 9.5 nM | 13.4 nM | 9.68 nM | 16.9 nM | 10.3 nM
17 | AAAGGCGGGCAGGAUACCAGCGCUAACAUGAGGAUCACCCAUGUACAAAUAAUAACAUGGUGCCCUUGGCAGCCUGGGCGUCUGC [Usedlati] | 26.6 nM | 150 nM | 61.3 nM |  | 
18 | GCUGGGUGCGCAAGGACCUGGCGUUGCGAUACCAGCACGGUAACGUGCCCUUGGCAGCGCACAUGAGGAUCACCCAUGUGGUGUG [#1 Exclusion - Theophylline A Attempt #20 (HarryS)] | 96.8 nM | 333 nM | 162 nM | 301 nM | 230 nM
19 | GCUGCCAUACGAAGGAGCGCUGGUGUAAUGAGGCGAACAUGAGGAUCACCCAUGUGGCAUAAGCAGGUAGGUCGCGUAUGGCAGC [EAB #16] | 16.6 nM | 20.2 nM | 15.9 nM | 20.8 nM | 17.2 nM

Row | Sequence | apparent KD of MS2 coat protein (input ligand: arginine 13.2 mM) | apparent KD of MS2 coat protein [1] | apparent KD of MS2 coat protein [2] | apparent KD of MS2 coat protein [3] | apparent KD of MS2 coat protein (input ligand: none)
20 | UGUCAAUCGCCGGAUACCAGCCUAACUGAAGGAAAUCUAAACAUGAGGAUCACCCAUGUAGGCCCUUGGCAGCCGAGUAAGUACA [theeternabot_exclusion_MS2_Theo_B_15] | 33.9 nM | 65.4 nM | 35.7 nM |  | 
21 | UCGGUUUUCUACAUGAGGAUCACCCAUGUCCGAGGACCGGUACGGCCGCCACUCGCAAUCAAACAGACGUGGGCCAAAUUUGCGU [Isinso] | 11.8 nM | 14.8 nM |  | 11.6 nM | 
22 | UGGUACAUGAGGAUCACCCAUGUUCCAGAUACCAGUGUCCCGCUGCACCCUUGGCAGCUGGUGGCACAUGAGGAUCACCCAUGUG [Exclusion Theophylline A GF12] | 11.5 nM | 16.3 nM | 15.1 nM |  | 
23 | ACUCGACCAUCAGCCAUUUGUGAAUCACGGCGAGGACCGGUACGGCCGCCACUCGACAUGAGGAUCACCCAUGUAAGACCGGUGU [vmullin3] | 24 nM | 37.8 nM |  | 39.6 nM | 
24 | UCUUACUAUAGUGAUACCAGACGUACAUGAGGAUCACCCAUGUUACAUUCUUGGUUAAAAGUCCCUUGGCAGCACGAUUUGUUCG [JR_Nu_ExcTheophyB_Sub026] | 9.88 nM | 10.8 nM | 9.76 nM |  | 
25 | GCCUAGCAGCGAAGGAGCGAGGUAACUUAAUAAAUAAAUACAAGAGGAUCACCCUUGUUUCCUCAGGUAGGUCGCGCUGCUAGGC [SSAB Alternative Aptamer #2 NP+V+V2] | 18.2 nM | 25.6 nM | 23.5 nM | 20.9 nM | 22.6 nM
26 | ACAUGAGGAUCACCCAUGUACAUGAGGGAAGGAGCGGUACAUGUGCCAGGUAGGUCGCCCAACAGCAUCAGCCAUGUACAUCAGC [ppsmullin] | 38.1 nM | 117 nM | 49.7 nM | 83.5 nM | 113 nM
27 | AAAACACAUGAGGAUCACCCAUGUCGUGAUACCAGUCAACAUGAGGACCCUUGGCAGCAUAAAAUGGGUAACAUGAGGAUAACCC [AstrosEXyTheA#3] | 75.4 nM | 105 nM | 101 nM |  | 
28 | GGGUGUGAUCCGGAUACCAGUGAACAUGAGGAUCACCCAUGUGACCUGAGAUCGGCUCUUCACCCUUGGCAGCCGCGGUCGCAGG [Same State Theophylline B GF14] | 11.4 nM | 18.6 nM | 10 nM | 10.7 nM | 11.5 nM
29 | AAAUACAUGAGGAUCACCCAUGUCAAUAAUCGAGGACCGGUACGGCCGCCACUCGAUCGGCCAAGAAAAUGAAAGAUGAUCUCUA [theeternabot_sameState_MS2_Trp_A_8] | 18.1 nM | 37.5 nM |  | 27.4 nM | 
30 | GCUAGGUCUACGGCCGCCACUAGACAUGGGUAAGACAUGAGGAUCACCCAUGUACUACGAGUGCAUAGGACCGGGUAGACCUAGC [SSTB NP+V+V2 #19 +-Same Structure] | 111 nM | 277 nM |  | 516 nM | 
31 | GAGUAGUAGACGGCCGCCACUAAACAUGAGGAUCACCCAUGUAGUGAUCCGUUACCUAGCGUAGAUAGGACCGGGUCAGAUAGUA [Exclusion Tryptophan B GF 14] | 21.6 nM | 31.7 nM |  | 25.9 nM | 
32 | GCAUCCUAGUCGGCCGCCACUGCGAAUAGGUCCUGAGUGAUCUAACAUGAGGAUCACCCAUGUAGCAGGACCGGGACUAGGAUGC [(Trp1)-(TM)''-(TM)'-(Ms2)-(Trp2)_Design5] | 12.8 nM | 22.3 nM | 17.3 nM | 23 nM | 16.5 nM
33 | AGCACUGUGACGGCCGCCACUACAUAAAUUGGGUGGUCAGGUUCAUUACAUGAGGAUCACCCAUGUAGGACCGGGUCUCAGUGCA [Omei Trp Exc B A v8] | 15.9 nM | 20.6 nM | 7.33 nM | 13.3 nM | 11.4 nM
34 | ACGUUGUAGUCGGCCGCCACUGUUUUCAUGUUCAACAUGAGGAUCACCCAUGUACCUUUUUUUAUCAGGACCGGGACGUAUUCGA [JR_SSTryptoB_Sub003] | 46.5 nM | 102 nM |  | 96.8 nM | 
35 | UUAAUCUUGGAUGAAAACAUUUAAGCAGAAGGAGCGUGAUAAAACACAGGUAGGUCGCUGAAGGGAACAUGAGGAUCACCCAUGU [AstrosSSArgA#15] | 22.5 nM | 28.8 nM | 32.9 nM | 31.7 nM | 38 nM
36 | AACAUGAGGAUCACCCAUGUCCUCGUGAUUCGAGGACCGGUACGGCCGCCACUCGGUCCUCGCGAGGUGGAGUCAAAGACUCCAA [Omei Trp A SS A v3] | 72.3 nM | 487 nM | 327 nM | 425 nM | 384 nM
37 | UUUAAUUUAAUAGAUACCAGCUAAUAAUAAUCCCGGAGGACAUGAGGAUCACCCAUGUGGAGCCCUUGGCAGCUAAAAUAAAUUU [Exclusion - Theophylline B] | 20.1 nM | 63.7 nM | 28.9 nM | 22.4 nM | 32.9 nM
